Experimental data as given in patent US20200207822A1, “PEPTIDE INHIBITORS OF INTERLEUKIN-23 RECEPTOR AND THEIR USE TO TREAT INFLAMMATORY DISEASES” (Protagonist Therapeutics, Inc., priority 2017, published 2020).
Positions of bridges follow the written chain, without caps; N, C: chain ends. Non-standard residues stand in square brackets, D forms with d. Groups on a side chain read outwards from the residue. 2Nal = N[C@@H](Cc1ccc2ccccc2c1)C(=O)O; AEF = NCCOc1ccc(C[C@H](N)C(=O)O)cc1; αMeL = CC(C)C[C@](C)(N)C(=O)O; Pen = CC(C)(S)[C@H](N)C(=O)O; dAbu = CC[C@@H](N)C(=O)O

T1: interleukin-23 receptor (IL-23R) (human, UniProt Q5VWK5 24-629)
T1 sequence (looked up): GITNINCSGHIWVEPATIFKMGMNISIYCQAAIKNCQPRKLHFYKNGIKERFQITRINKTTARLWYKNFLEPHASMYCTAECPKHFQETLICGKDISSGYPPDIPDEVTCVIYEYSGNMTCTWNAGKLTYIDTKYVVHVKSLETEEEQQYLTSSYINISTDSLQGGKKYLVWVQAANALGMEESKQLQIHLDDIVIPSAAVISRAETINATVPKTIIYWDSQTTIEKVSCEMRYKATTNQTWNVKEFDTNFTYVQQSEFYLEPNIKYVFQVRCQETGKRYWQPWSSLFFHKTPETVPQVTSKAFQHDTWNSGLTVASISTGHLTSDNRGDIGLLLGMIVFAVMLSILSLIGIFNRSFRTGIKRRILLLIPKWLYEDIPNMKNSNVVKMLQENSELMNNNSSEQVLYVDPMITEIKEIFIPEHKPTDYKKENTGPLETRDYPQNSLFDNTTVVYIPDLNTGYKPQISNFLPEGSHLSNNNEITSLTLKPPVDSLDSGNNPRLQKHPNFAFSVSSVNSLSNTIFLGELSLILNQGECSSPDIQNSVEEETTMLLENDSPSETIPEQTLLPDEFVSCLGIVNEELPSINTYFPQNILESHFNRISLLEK


Target: T1, interleukin-23 receptor (IL-23R)
Assay: cell-based or functional assay

Row | IC50, pStat3 HTRF (nM) | Binder
1 | < 1 | Ac-[dK]([Glu-Ac])[Pen]NTWK(Ac)[Pen][AEF][2Nal][αMeL]K(Ac)NN-NH2 (disulfide 2-7 (inferred)) [SEQ ID NO 230]
2 | < 1 | XNTWQXXXXKNNR (Ac-[Pen]-NTWQ-[Pen]-[Phe[4-(2-aminoethoxy)]-[2-Nal]-[α-MeLeu]-[Lys(Ac)]-NNR-NH2) [SEQ ID NO 161]
3 | < 1 | Ac-K([Arg-Ac])[Pen]NTWK(Ac)[Pen][AEF][2Nal][αMeL]K(Ac)NN-NH2 (disulfide 2-7 (inferred)) [SEQ ID NO 227]
4 | < 1 | Ac-[dK]([Leu-Ac])[Pen]NTWK(Ac)[Pen][AEF][2Nal][αMeL]K(Ac)NN-NH2 (disulfide 2-7 (inferred)) [SEQ ID NO 235]
5 | < 1 | Ac-K([Phe-Ac])[Pen]NTWK(Ac)[Pen][AEF][2Nal][αMeL]K(Ac)NN-NH2 (disulfide 2-7 (inferred)) [SEQ ID NO 224]
6 | < 1 | XNTWQXXXXKNNX (Ac-[Pen]-NTWQ-[Pen]-[Phe[4-(2-aminoethoxy)]-[2-Nal]-[α-MeLeu]-[Lys(Ac)]-NN-[(D)Arg]-NH2) [SEQ ID NO 174]
7 | > 100 | Ac-[Pen]NTWQ[dAbu][AEF][2Nal][αMeL]K(Ac)NN-NH2 (thioether 1-6) [SEQ ID NO 137]
8 | < 1 | Ac-[dK]([Pro-Ac])[Pen]NTWK(Ac)[Pen][AEF][2Nal][αMeL]K(Ac)NN-NH2 (disulfide 2-7 (inferred)) [SEQ ID NO 236]
9 | < 1 | XXQTWQCXXXENN (Ac-[(D)Arg]-cyclo[[Abu]-QTWQC]-[Phe[4-(2-aminoethoxy)]-[2-Nal]-[3-cyclohexyl-Ala]-ENN-NH2) [SEQ ID NO 147]
10 | < 1 | XNTWQXXXXKNNX (Ac-[Pen]-NTWQ-[Pen]-[Phe[4-(2-aminoethoxy)]-[2-Nal]-[α-MeLeu]-[Lys(Ac)]-NN-[(D)Ile]-NH2) [SEQ ID NO 175]
11 | < 1 | Ac-K([Tyr-Ac])[Pen]NTWK(Ac)[Pen][AEF][2Nal][αMeL]K(Ac)NN-NH2 (disulfide 2-7 (inferred)) [SEQ ID NO 225]
12 | < 1 | XXQTWQCXXXENN (Ac-[(D)Arg]-cyclo[[Abu]-QTWQC]-[Phe[4-(2-aminoethoxy)]-[2-Nal]-[α-MeLeu]-ENN-NH2) [SEQ ID NO 138]
13 | < 1 | Ac-[dK]([Phe-Ac])[Pen]NTWK(Ac)[Pen][AEF][2Nal][αMeL]K(Ac)NN-NH2 (disulfide 2-7 (inferred)) [SEQ ID NO 231]
14 | < 1 | Ac-[dK]([Arg-Ac])[Pen]NTWK(Ac)[Pen][AEF][2Nal][αMeL]K(Ac)NN-NH2 (disulfide 2-7 (inferred)) [SEQ ID NO 234]
15 | < 1 | XXQTWQCXXXENN (Ac-[(D)Arg]-cyclo[[Abu]-QTWQC]-[Phe[4-(2-aminoethoxy)]-[2-Nal]-[Aib]-ENN-NH2) [SEQ ID NO 148]
16 | < 1 | XNTWKXXXXKNNX (Ac-[Pen]-NTW-[Lys(Ac)]-[Pen]-[Phe[4-(2-aminoethoxy)]-[2-Nal]-[α-MeLeu]-[Lys(Ac)]-NN-[Ahx]-NH2) [SEQ ID NO 197]
17 | < 1 | XNTWKXXXXKNN (Ac-[Pen]-NTW-[Lys(Ac)]-[Pen]-[Phe[4-(2-aminoethoxy)]-[2-Nal]-[α-MeLeu]-[Lys(Ac)]-NN-NH2) [SEQ ID NO 170]

Row | IC50, pStat3 HTRF (nM) | Binder
18 | < 1 | XNTWQXXXXKNNX (Ac-[Pen]-NTWQ-[Pen]-[Phe[4-(2-aminoethoxy)]-[2-Nal]-[α-MeLeu]-[Lys(Ac)]-NN-[(D)Gln]-NH2) [SEQ ID NO 177]
19 | < 1 | Ac-K([Ser-Ac])[Pen]NTWK(Ac)[Pen][AEF][2Nal][αMeL]K(Ac)NN-NH2 (disulfide 2-7 (inferred)) [SEQ ID NO 226]
20 | > 100 | XXQTWKCXXXENN (Ac-[(D)Arg]-cyclo[[Abu]-QTW-Lys(isoGlu-Palm)-C]-[Phe[4-(2-aminoethoxy)]-[2-Nal]-[4-amino-4-carboxy-tetrahydropyran]-ENN-NH2) [SEQ ID NO 153]
21 | < 1 | Ac-[dK]([Tyr-Ac])[Pen]NTWK(Ac)[Pen][AEF][2Nal][αMeL]K(Ac)NN-NH2 (disulfide 2-7 (inferred)) [SEQ ID NO 232]
22 | < 1 | XNTWQXXXXKNNS (Ac-[Pen]-NTWQ-[Pen]-[Phe[4-(2-aminoethoxy)]-[2-Nal]-[α-MeLeu]-[Lys(Ac)]-NNS-NH2) [SEQ ID NO 165]
23 | < 1 | XNTWKXXXXKNNX (Ac-[Pen]-NTW-[Lys(Ac)]-[Pen]-[Phe[4-(2-aminoethoxy)]-[2-Nal]-[α-MeLeu]-[Lys(Ac-(D)Asn)]-NN-[(D)Ile]-NH2) [SEQ ID NO 218]
24 | < 1 | XNTWQXXXXKNNX ((Ac-[Pen]-NTWQ-[Pen]-[Phe(4-CONH2)]-[2-Nal]-[α-MeLeu]-[Lys(Ac)]-NN-[(D)Lys]-NH2)2-DIG) [SEQ ID NO 184]
25 | < 1 | XNTWKXXXXKNNX (Ac-[Pen]-NTW-[Lys(Ac)]-[Pen]-[Phe[4-(2-aminoethoxy)]-[2-Nal]-[α-MeLeu]-[Lys(Ac)]-NN-[Sar]-NH2) [SEQ ID NO 198]
26 | < 1 | Ac-K([Pro-Ac])[Pen]NTWK(Ac)[Pen][AEF][2Nal][αMeL]K(Ac)NN-NH2 (disulfide 2-7 (inferred)) [SEQ ID NO 229]
27 | < 1 | XNTWQXXXXKNNQ (Ac-[Pen]-NTWQ-[Pen]-[Phe[4-(2-aminoethoxy)]-[2-Nal]-[α-MeLeu]-[Lys(Ac)]-NNQ-NH2) [SEQ ID NO 164]
28 | < 1 | Ac-K([Glu-Ac])[Pen]NTWK(Ac)[Pen][AEF][2Nal][αMeL]K(Ac)NN-NH2 (disulfide 2-7 (inferred)) [SEQ ID NO 223]
29 | < 1 | XNTWQXXXXKNNY (Ac-[Pen]-NTWQ-[Pen]-[Phe[4-(2-aminoethoxy)]-[2-Nal]-[α-MeLeu]-[Lys(Ac)]-NNY-NH2) [SEQ ID NO 159]
30 | < 1 | Ac-K([Leu-Ac])[Pen]NTWK(Ac)[Pen][AEF][2Nal][αMeL]K(Ac)NN-NH2 (disulfide 2-7 (inferred)) [SEQ ID NO 228]
31 | < 1 | XNTWKXXXXKNNX (Ac-[Pen]-NTW-[Lys(Ac)]-[Pen]-[Phe[4-(2-aminoethoxy)]-[2-Nal]-[α-MeLeu]-[Lys(Ac)]-NN-[β-Ala]-NH2) [SEQ ID NO 196]
32 | < 1 | XNTWKXXXXKNNG (Ac-[Pen]-NTW-[Lys(Ac)]-[Pen]-[Phe[4-(2-aminoethoxy)]-[2-Nal]-[α-MeLeu]-[Lys(Ac)]-NNG-NH2) [SEQ ID NO 195]
33 | < 1 | Ac-[dK]([Ser-Ac])[Pen]NTWK(Ac)[Pen][AEF][2Nal][αMeL]K(Ac)NN-NH2 (disulfide 2-7 (inferred)) [SEQ ID NO 233]
